Experimental data published in the supplement of paper PMC9112550, “Optimization of the antimicrobial peptide Bac7 by deep mutational scanning” (BMC Biology, 2022).

Test system: Escherichia coli TOP10
Assay: shrunken log2 fold change of peptide-encoding DNA abundance (4.5 h post-induction vs induction); higher = less antimicrobial activity (less host growth inhibition)
Conditions: time post-induction: 4.5 h; library: site-saturation at positions 5, 18, 19, 20
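Also: peptides expressed intracellularly from a pBAD plasmid library in pooled LB shake-flask culture, induced with 0.3% L-arabinose, DNA abundance read by NGS, three biological replicates, DESeq2 with apeglm shrinkage.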

RRIRSRPPRLPRPRPRPADYPRP
shrunken log2 fold change: -0.455

RRIRSRPPRLPRPRPRPAFNPRP
shrunken log2 fold change: 0.0949

RRIRSRPPRLPRPRPRPAGTPRP
shrunken log2 fold change: 1.67

RRIRSRPPRLPRPRPRPAHAPRP
shrunken log2 fold change: 0.121

RRIRSRPPRLPRPRPRPAHDPRP
shrunken log2 fold change: 0.162

RRIRSRPPRLPRPRPRPAHGPRP
shrunken log2 fold change: 0.153

RRIRSRPPRLPRPRPRPAHMPRP
shrunken log2 fold change: -0.138

RRIRSRPPRLPRPRPRPAHYPRP
shrunken log2 fold change: -0.131

RRIRSRPPRLPRPRPRPAILPRP
shrunken log2 fold change: -0.313

RRIRSRPPRLPRPRPRPAIRPRP
shrunken log2 fold change: -0.0385

RRIRSRPPRLPRPRPRPALGPRP
shrunken log2 fold change: 0.505

RRIRSRPPRLPRPRPRPALQPRP
shrunken log2 fold change: 0.441

RRIRSRPPRLPRPRPRPALVPRP
shrunken log2 fold change: 0.398

RRIRSRPPRLPRPRPRPAMYPRP
shrunken log2 fold change: -0.184

RRIRSRPPRLPRPRPRPANWPRP
shrunken log2 fold change: 0.343

RRIRSRPPRLPRPRPRPAPCPRP
shrunken log2 fold change: 0.308

RRIRSRPPRLPRPRPRPAPTPRP
shrunken log2 fold change: 0.732

RRIRSRPPRLPRPRPRPAQRPRP
shrunken log2 fold change: 0.105

RRIRSRPPRLPRPRPRPASCPRP
shrunken log2 fold change: 0.131

RRIRSRPPRLPRPRPRPASWPRP
shrunken log2 fold change: 0.363

RRIRSRPPRLPRPRPRPAVKPRP
shrunken log2 fold change: -0.177

RRIRSRPPRLPRPRPRPAWEPRP
shrunken log2 fold change: 0.499

RRIRSRPPRLPRPRPRPAWRPRP
shrunken log2 fold change: 0.567

RRIRSRPPRLPRPRPRPCALPRP
shrunken log2 fold change: -0.242

RRIRSRPPRLPRPRPRPCAQPRP
shrunken log2 fold change: 0.00151

RRIRSRPPRLPRPRPRPCCNPRP
shrunken log2 fold change: -0.0171

RRIRSRPPRLPRPRPRPCGCPRP
shrunken log2 fold change: -0.00437

RRIRSRPPRLPRPRPRPCGRPRP
shrunken log2 fold change: -0.485

RRIRSRPPRLPRPRPRPCHEPRP
shrunken log2 fold change: 0.0697

RRIRSRPPRLPRPRPRPCHFPRP
shrunken log2 fold change: -0.186

RRIRSRPPRLPRPRPRPCIMPRP
shrunken log2 fold change: -0.105

RRIRSRPPRLPRPRPRPCKCPRP
shrunken log2 fold change: -0.359

RRIRSRPPRLPRPRPRPCKVPRP
shrunken log2 fold change: -0.265

RRIRSRPPRLPRPRPRPCLLPRP
shrunken log2 fold change: -0.284

RRIRSRPPRLPRPRPRPCLMPRP
shrunken log2 fold change: -0.135

RRIRSRPPRLPRPRPRPCLNPRP
shrunken log2 fold change: -0.0696

RRIRSRPPRLPRPRPRPCMAPRP
shrunken log2 fold change: -0.182

RRIRSRPPRLPRPRPRPCNDPRP
shrunken log2 fold change: -0.261

RRIRSRPPRLPRPRPRPCNMPRP
shrunken log2 fold change: -0.221

RRIRSRPPRLPRPRPRPCNVPRP
shrunken log2 fold change: -0.175

RRIRSRPPRLPRPRPRPCPKPRP
shrunken log2 fold change: 0.355

RRIRSRPPRLPRPRPRPCQDPRP
shrunken log2 fold change: -0.0622

RRIRSRPPRLPRPRPRPCSKPRP
shrunken log2 fold change: -0.234

RRIRSRPPRLPRPRPRPCSYPRP
shrunken log2 fold change: -0.379

RRIRSRPPRLPRPRPRPCTAPRP
shrunken log2 fold change: -0.231

RRIRSRPPRLPRPRPRPCVVPRP
shrunken log2 fold change: -0.266

RRIRSRPPRLPRPRPRPCWFPRP
shrunken log2 fold change: -0.0822

RRIRSRPPRLPRPRPRPCWMPRP
shrunken log2 fold change: -0.0635

RRIRSRPPRLPRPRPRPDAWPRP
shrunken log2 fold change: 0.545

RRIRSRPPRLPRPRPRPDDFPRP
shrunken log2 fold change: -0.151

RRIRSRPPRLPRPRPRPDDGPRP
shrunken log2 fold change: 0.00408

RRIRSRPPRLPRPRPRPDDHPRP
shrunken log2 fold change: -0.0124

RRIRSRPPRLPRPRPRPDFKPRP
shrunken log2 fold change: -0.0946

RRIRSRPPRLPRPRPRPDGIPRP
shrunken log2 fold change: -0.0491

RRIRSRPPRLPRPRPRPDHRPRP
shrunken log2 fold change: 0.0482

RRIRSRPPRLPRPRPRPDIAPRP
shrunken log2 fold change: -0.0218

RRIRSRPPRLPRPRPRPDIHPRP
shrunken log2 fold change: -1.3

RRIRSRPPRLPRPRPRPDKYPRP
shrunken log2 fold change: -0.845

RRIRSRPPRLPRPRPRPDLRPRP
shrunken log2 fold change: 0.248

RRIRSRPPRLPRPRPRPDMNPRP
shrunken log2 fold change: 0.0168

RRIRSRPPRLPRPRPRPDNAPRP
shrunken log2 fold change: -0.201

RRIRSRPPRLPRPRPRPDNNPRP
shrunken log2 fold change: -0.268

RRIRSRPPRLPRPRPRPDNTPRP
shrunken log2 fold change: -0.44

RRIRSRPPRLPRPRPRPDREPRP
shrunken log2 fold change: 0.154

RRIRSRPPRLPRPRPRPDRIPRP
shrunken log2 fold change: -0.249

RRIRSRPPRLPRPRPRPDRKPRP
shrunken log2 fold change: -0.0693

RRIRSRPPRLPRPRPRPDSIPRP
shrunken log2 fold change: 0.0681

RRIRSRPPRLPRPRPRPDTMPRP
shrunken log2 fold change: -0.462

RRIRSRPPRLPRPRPRPDTTPRP
shrunken log2 fold change: -0.191

RRIRSRPPRLPRPRPRPDVCPRP
shrunken log2 fold change: 0.0421

RRIRSRPPRLPRPRPRPDVYPRP
shrunken log2 fold change: -0.0361

RRIRSRPPRLPRPRPRPEAGPRP
shrunken log2 fold change: 1.34

RRIRSRPPRLPRPRPRPEAIPRP
shrunken log2 fold change: 0.748

RRIRSRPPRLPRPRPRPEDPPRP
shrunken log2 fold change: 0.931

RRIRSRPPRLPRPRPRPEDVPRP
shrunken log2 fold change: 0.183

RRIRSRPPRLPRPRPRPEGHPRP
shrunken log2 fold change: 0.0136

RRIRSRPPRLPRPRPRPEGIPRP
shrunken log2 fold change: 0.0592

RRIRSRPPRLPRPRPRPEGWPRP
shrunken log2 fold change: 1.18

RRIRSRPPRLPRPRPRPEHKPRP
shrunken log2 fold change: -0.156

RRIRSRPPRLPRPRPRPEIGPRP
shrunken log2 fold change: 0.291

RRIRSRPPRLPRPRPRPEIYPRP
shrunken log2 fold change: -0.295

RRIRSRPPRLPRPRPRPEKDPRP
shrunken log2 fold change: 0.124

RRIRSRPPRLPRPRPRPELNPRP
shrunken log2 fold change: 0.399

RRIRSRPPRLPRPRPRPEMDPRP
shrunken log2 fold change: -0.0847

RRIRSRPPRLPRPRPRPEMPPRP
shrunken log2 fold change: 0.00153

RRIRSRPPRLPRPRPRPENIPRP
shrunken log2 fold change: -0.278

RRIRSRPPRLPRPRPRPENMPRP
shrunken log2 fold change: -0.459

RRIRSRPPRLPRPRPRPERSPRP
shrunken log2 fold change: 0.206

RRIRSRPPRLPRPRPRPESGPRP
shrunken log2 fold change: 0.351

RRIRSRPPRLPRPRPRPESKPRP
shrunken log2 fold change: 0.385

RRIRSRPPRLPRPRPRPESYPRP
shrunken log2 fold change: 1.29

RRIRSRPPRLPRPRPRPETDPRP
shrunken log2 fold change: 0.392

RRIRSRPPRLPRPRPRPETPPRP
shrunken log2 fold change: 1.01

RRIRSRPPRLPRPRPRPEYHPRP
shrunken log2 fold change: -0.282

RRIRSRPPRLPRPRPRPEYIPRP
shrunken log2 fold change: -0.0603

RRIRSRPPRLPRPRPRPFAGPRP
shrunken log2 fold change: -0.00284

RRIRSRPPRLPRPRPRPFCSPRP
shrunken log2 fold change: -0.212

RRIRSRPPRLPRPRPRPFFTPRP
shrunken log2 fold change: -0.00429

RRIRSRPPRLPRPRPRPFHFPRP
shrunken log2 fold change: -0.308

RRIRSRPPRLPRPRPRPFHHPRP
shrunken log2 fold change: -0.804

RRIRSRPPRLPRPRPRPFHKPRP
shrunken log2 fold change: -0.0363

RRIRSRPPRLPRPRPRPFKNPRP
shrunken log2 fold change: -0.378

RRIRSRPPRLPRPRPRPFLQPRP
shrunken log2 fold change: -0.267

RRIRSRPPRLPRPRPRPFNSPRP
shrunken log2 fold change: -0.116

RRIRSRPPRLPRPRPRPFQCPRP
shrunken log2 fold change: -0.461

RRIRSRPPRLPRPRPRPFRHPRP
shrunken log2 fold change: -0.0389

RRIRSRPPRLPRPRPRPFSCPRP
shrunken log2 fold change: -0.0153

RRIRSRPPRLPRPRPRPFSEPRP
shrunken log2 fold change: 0.00901

RRIRSRPPRLPRPRPRPFVFPRP
shrunken log2 fold change: -0.102
